These results are taken from publication PMC7968844.

The nature of series [1]: FLAG pulldown, MS peptide reads. As to conditions: glycan lost; control: MCF7-WT cells.
Series [2] in a line: CHX chase, Western blot, endogenous ERα. The settings on record: glycan lost; control: MCF7-WT cells, empty vector.
The nature of series [3]: CHX chase, Western blot, MCF7-WT cells. As to conditions: glycan lost; control: ERα-WT in MCF7-WT cells. Background: Immunoblotting shows a protein as a band on a membrane.
Series [4] can be described thus: CHX chase, Western blot, GREB1-KO cells. As to conditions: glycan lost; control: ERα-WT in GREB1-KO cells.
The nature of series [5]: Western blot of ERα after GREB1 reconstitution. The settings on record: glycan gained; control: GREB1-KO cells + Vec.

B1: ERα (estrogen receptor α): GREB1-KO (protein)
parent chain: MTMTLHTKASGMALLHQIQGNELEPLNRPQLKIPLERPLGEVYLDSSKPAVYNYPEGAAYEFNAAAAANAQVYGQTGLPYGPGSEAAAFGSNGLGGFPPLNSVSPSPLMLLHPPPQLSPFLQPHGQQVPYYLENEPSGYTVREAGPPAFYRPNSDNRRQGGRERLASTNDKGSMAMESAKETRYCAVCNDYASGYHYGVWSCEGCKAFFKRSIQGHNDYMCPATNQCTIDKNRRKSCQACRLRKCYEVGMMKGGIRKDRRGGRMLKHKRQRDDGEGRGEVGSAGDMRAANLWPSPLMIKRSKKNSLALSLTADQMVSALLDAEPPILYSEYDPTRPFSEASMMGLLTNLADRELVHMINWAKRVPGFVDLTLHDQVHLLECAWLEILMIGLVWRSMEHPGKLLFAPNLLLDRNQGKCVEGMVEIFDMLLATSSRFRMMNLQGEEFVCLKSIILLNSGVYTFLSSTLKSLEEKDHIHRVLDKITDTLIHLMAKAGLTLQQQHQRLAQLLLILSHIRHMSNKGMEHLYSMKCKNVVPLYDLLLEMLDAHRLHAPTSRGGASVEETDQSHLATAGSTSSHSLQKYYITGEAEGFPATV
Take B1: in series [1], the “other: ubiquitin associated with ERα” value is “increases”. Besides, the degradation_or_half_life result in series [2] is “decreases”.

B2: ERα (estrogen receptor α): ERα-2M (protein)
parent chain: MTMTLHTKASGMALLHQIQGNELEPLNRPQLKIPLERPLGEVYLDSSKPAVYNYPEGAAYEFNAAAAANAQVYGQTGLPYGPGSEAAAFGSNGLGGFPPLNSVSPSPLMLLHPPPQLSPFLQPHGQQVPYYLENEPSGYTVREAGPPAFYRPNSDNRRQGGRERLASTNDKGSMAMESAKETRYCAVCNDYASGYHYGVWSCEGCKAFFKRSIQGHNDYMCPATNQCTIDKNRRKSCQACRLRKCYEVGMMKGGIRKDRRGGRMLKHKRQRDDGEGRGEVGSAGDMRAANLWPSPLMIKRSKKNSLALSLTADQMVSALLDAEPPILYSEYDPTRPFSEASMMGLLTNLADRELVHMINWAKRVPGFVDLTLHDQVHLLECAWLEILMIGLVWRSMEHPGKLLFAPNLLLDRNQGKCVEGMVEIFDMLLATSSRFRMMNLQGEEFVCLKSIILLNSGVYTFLSSTLKSLEEKDHIHRVLDKITDTLIHLMAKAGLTLQQQHQRLAQLLLILSHIRHMSNKGMEHLYSMKCKNVVPLYDLLLEMLDAHRLHAPTSRGGASVEETDQSHLATAGSTSSHSLQKYYITGEAEGFPATV
As to B2, the degradation_or_half_life result in series [3] was “decreases”; in series [4], “no change”.

B3: ERα (estrogen receptor α): GT-WT (protein)
parent chain: MTMTLHTKASGMALLHQIQGNELEPLNRPQLKIPLERPLGEVYLDSSKPAVYNYPEGAAYEFNAAAAANAQVYGQTGLPYGPGSEAAAFGSNGLGGFPPLNSVSPSPLMLLHPPPQLSPFLQPHGQQVPYYLENEPSGYTVREAGPPAFYRPNSDNRRQGGRERLASTNDKGSMAMESAKETRYCAVCNDYASGYHYGVWSCEGCKAFFKRSIQGHNDYMCPATNQCTIDKNRRKSCQACRLRKCYEVGMMKGGIRKDRRGGRMLKHKRQRDDGEGRGEVGSAGDMRAANLWPSPLMIKRSKKNSLALSLTADQMVSALLDAEPPILYSEYDPTRPFSEASMMGLLTNLADRELVHMINWAKRVPGFVDLTLHDQVHLLECAWLEILMIGLVWRSMEHPGKLLFAPNLLLDRNQGKCVEGMVEIFDMLLATSSRFRMMNLQGEEFVCLKSIILLNSGVYTFLSSTLKSLEEKDHIHRVLDKITDTLIHLMAKAGLTLQQQHQRLAQLLLILSHIRHMSNKGMEHLYSMKCKNVVPLYDLLLEMLDAHRLHAPTSRGGASVEETDQSHLATAGSTSSHSLQKYYITGEAEGFPATV
For B3, in series [5], the expression_or_secretion entry was “increases”.
